Laboratory results taken from paper PMC7447978, “The ASC-1 Complex Disassembles Collided Ribosomes” (Molecular Cell, 2020).

B1: ASCC2 with a C-terminal FLAG tag (natural protein, human, UniProt Q9H1I8 1-757, looked up)
chain: MPALPLDQLQITHKDPKTGKLRTSPALHPEQKADRYFVLYKPPPKDNIPALVEEYLERATFVANDLDWLLALPHDKFWCQVIFDETLQKCLDSYLRYVPRKFDEGVASAPEVVDMQKRLHRSVFLTFLRMSTHKESKDHFISPSAFGEILYNNFLFDIPKILDLCVLFGKGNSPLLQKMIGNIFTQQPSYYSDLDETLPTILQVFSNILQHCGLQGDGANTTPQKLEERGRLTPSDMPLLELKDIVLYLCDTCTTLWAFLDIFPLACQTFQKHDFCYRLASFYEAAIPEMESAIKKRRLEDSKLLGDLWQRLSHSRKKLMEIFHIILNQICLLPILESSCDNIQGFIEEFLQIFSSLLQEKRFLRDYDALFPVAEDISLLQQASSVLDETRTAYILQAVESAWEGVDRRKATDAKDPSVIEEPNGEPNGVTVTAEAVSQASSHPENSEEEECMGAAAAVGPAMCGVELDSLISQVKDLLPDLGEGFILACLEYYHYDPEQVINNILEERLAPTLSQLDRNLDREMKPDPTPLLTSRHNVFQNDEFDVFSRDSVDLSRVHKGKSTRKEENTRSLLNDKRAVAAQRQRYEQYSVVVEEVPLQPGESLPYHSVYYEDEYDDTYDGNQVGANDADSDDELISRRPFTIPQVLRTKVPREGQEEDDDDEEDDADEEAPKPDHFVQDPAVLREKAEARRMAFLAKKGYRHDSSTAVAGSPRGHGQSRETTQERRKKEANKATRANHNRRTMADRKRSKGMIPS
notes: ASCC2, human, subunit of the ASC-1 complex (ASCC); Cloned with primers from the start codon to the last codons before the FLAG tag and stop; Plasmid pUCDM-ASCC2-FLAG-TRIP4; also called ASCC2-FLAG; source: Sf21 insect cells, baculovirus, co-expressed with the other ASCC subunits; purified (NiNTA, anti-FLAG M2, heparin Sepharose); not shown: FLAG, C-terminal, kept

Tests used:
[1] = biological target: T1, ASCC1 with a C-terminal 8-histidine tag (human, UniProt Q8N9N2-2 1-357); assay: tandem affinity co-purification (NiNTA, anti-FLAG M2, heparin Sepharose); four subunits co-expressed in Sf21 insect cells; lysate bound to NiNTA through ASCC1-8His (washed at 300 mM NaCl), the eluate bound to anti-FLAG M2 resin through ASCC2-FLAG and eluted with FLAG peptide, then heparin Sepharose; elution fractions shown on a gel; 4°C, 20 mM Tris-HCl 8.0, 10% glycerol; settings: partners not purified
T1 construct: ASCC1, human, subunit of the ASC-1 complex (ASCC); Plasmid pFL-ASCC1-8His-ASCC3, fused by Cre with pUCDM-ASCC2-FLAG-TRIP4; The isoform is inferred from the printed reverse primer; also called ASCC1-8His; source: Sf21 insect cells, baculovirus, co-expressed with the other ASCC subunits; purified (NiNTA, anti-FLAG M2, heparin Sepharose); not shown: His8, C-terminal, kept
T1 sequence (looked up): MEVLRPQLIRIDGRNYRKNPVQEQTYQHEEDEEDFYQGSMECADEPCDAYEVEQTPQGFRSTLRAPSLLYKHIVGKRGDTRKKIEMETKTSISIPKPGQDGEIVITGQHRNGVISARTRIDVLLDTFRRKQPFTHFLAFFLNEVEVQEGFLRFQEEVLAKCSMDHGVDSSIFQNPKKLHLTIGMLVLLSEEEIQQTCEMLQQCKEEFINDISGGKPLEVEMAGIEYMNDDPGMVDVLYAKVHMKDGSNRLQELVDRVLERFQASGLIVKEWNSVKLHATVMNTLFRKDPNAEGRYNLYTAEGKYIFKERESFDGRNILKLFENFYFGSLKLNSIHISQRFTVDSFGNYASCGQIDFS

[2] = biological target: B1; assay: as above; settings: partners not purified

Binder | stoichiometry N [1] | stoichiometry N [2]
B1 | ~1 | 
ASC-1 (also known as TRIP4), untagged (natural protein, human, UniProt Q15650 1-581, looked up, ASC-1 (TRIP4), human, subunit of the ASC-1 complex (ASCC); Untagged, cloned with primers from the start codon to the stop codon; Plasmid pUCDM-ASCC2-FLAG-TRIP4; source: Sf21 insect cells, baculovirus, co-expressed with the other ASCC subunits; purified (NiNTA, anti-FLAG M2, heparin Sepharose)) MAVAGAVSGEPLVHWCTQQLRKTFGLDVSEEIIQYVLSIESAEEIREYVTDLLQGNEGKKGQFIEELITKWQKNDQELISDPLQQCFKKDEILDGQKSGDHLKRGRKKGRNRQEVPAFTEPDTTAEVKTPFDLAKAQENSNSVKKKTKFVNLYTREGQDRLAVLLPGRHPCDCLGQKHKLINNCLICGRIVCEQEGSGPCLFCGTLVCTHEEQDILQRDSNKSQKLLKKLMSGVENSGKVDISTKDLLPHQELRIKSGLEKAIKHKDKLLEFDRTSIRRTQVIDDESDYFASDSNQWLSKLERETLQKREEELRELRHASRLSKKVTIDFAGRKILEEENSLAEYHSRLDETIQAIANGTLNQPLTKLDRSSEEPLGVLVNPNMYQSPPQWVDHTGAASQKKAFRSSGFGLEFNSFQHQLRIQDQEFQEGFDGGWCLSVHQPWASLLVRGIKRVEGRSWYTPHRGRLWIAATAKKPSPQEVSELQATYRLLRGKDVEFPNDYPSGCLLGCVDLIDCLSQKQFKEQFPDISQESDSPFVFICKNPQEMVVKFPIKGNPKIWKLDSKIHQGAKKGLMKQNKAV | ~1 | ~1
